# Results from patent publication US20070087400A1, “Covalent tethering of functional groups to proteins and substrates therefor” (priority 2004, published 2007).
# Where a chain is given by its changes, count along the chain named. Names and notes keep the numbering of the source.
# B1: DhaA.H272Q: DhaA mutant with H272Q substitution (protein, UniProt P0A3G2 1-293, looked up, variant H272Q)
# Haloalkane dehalogenase: MSEIGTGFPFDPHYVEVLGERMHYVDVGPRDGTPVLFLHGNPTSSYLWRNIIPHVAPSHRCIAPDLIGMGKSDKPDLDYFFDDHVRYLDAFIEALGLEEVVLVIHDWGSALGFHWAKRNPERVKGIACMEFIRPIPTWDEWPEFARETFQAFRTADVGRELIIDQNAFIEGALPKCVVRPLTEVEMDHYREPFLKPVDREPLWRFPNELPIAGEPANIVALVEAYMNWLHQSPVPKLLFWGTPGVLIPPAEAARLAESLPNCKTVDIGPGLQYLQEDNPDLIGSEIARWLPAL
# B2: DhaA.H272F YL: DhaA.H272F based mutant with Y273L (protein, UniProt P0A3G2 1-293, looked up, variant H272F Y273L)
# Haloalkane dehalogenase: B1 Haloalkane dehalogenase with Q272F, Y273L
# B3: DhaA.WT: wild-type Rhodococcus rhodochrous dehalogenase (DhaA) (protein, UniProt P0A3G2 1-293, looked up)
# Haloalkane dehalogenase: B1 Haloalkane dehalogenase with Q272H
# B4: DhaA.H272F YC: DhaA.H272F based mutant with Y273C (protein, UniProt P0A3G2 1-293, looked up, variant H272F Y273C)
# Haloalkane dehalogenase: B1 Haloalkane dehalogenase with Q272F, Y273C
# B5: DhaA.H272A: DhaA mutant with H272A substitution (protein, UniProt P0A3G2 1-293, looked up, variant H272A)
# Haloalkane dehalogenase: B1 Haloalkane dehalogenase with Q272A
# B6: DhaA.H272F: DhaA mutant, catalytic His272 replaced with Phe (protein, UniProt P0A3G2 1-293, looked up, variant H272F)
# Haloalkane dehalogenase: B1 Haloalkane dehalogenase with Q272F
# B7: DhaA.H272F H11: first generation DhaA.H272F mutant with K175M and C176G (protein, UniProt P0A3G2 1-293, looked up, variant K175M C176G H272F)
# Haloalkane dehalogenase: B1 Haloalkane dehalogenase with K175M, C176G, Q272F
# B8: DhaA.H272F YM: DhaA.H272F based mutant with Y273M (protein, UniProt P0A3G2 1-293, looked up, variant H272F Y273M)
# Haloalkane dehalogenase: B1 Haloalkane dehalogenase with Q272F, Y273M
# B9: DhaA.H272G: DhaA mutant with H272G substitution (protein, UniProt P0A3G2 1-293, looked up, variant H272G)
# Haloalkane dehalogenase: B1 Haloalkane dehalogenase with Q272G
# B10: BlaZ.N170Q (protein, UniProt P00807 25-281, looked up, variant N170Q)
# Beta-lactamase: KELNDLEKKYNAHIGVYALDTKSGKEVKFNSDKRFAYASTSKAINSAILLEQVPYNKLNKKVHINKDDIVAYSPILEKYVGKDITLKALIEASMTYSDNTANNKIIKEIGGIKKVKQRLKELGDKVTNPVRYEIELNYYSPKSKKDTSTPAAFGKTLNKLIANGKLSKEQKKFLLDLMLNNKSGDTLIKDGVPKDYKVADKSGQAITYASRNDVAFVYPKGQSEPIVLVIFTNKDNKSDKPNDKLISETAKSVMKEF
# Key:
# [1] = Precipitation of DhaA proteins with (NH4)2SO4; type: physicochemical; conditions: 2 hours, 4° C.
# Procedure: Aliquots of the supernatant obtained from E. coli expressing DhaA (WT or one of the mutants) were treated with increasing concentrations of (NH4)2SO4. The proteins were exposed to each (NH4)2SO4 concentration for 2 hours (4° C.), pelleted by centrifugation, dialyzed overnight against buffer A, and resolved on SDS-PAGE.
# [2] = Protein immobilization assay (substrate capture using immobilized DhaA); conditions: biotin-PEG4-14-Cl substrate
# [3] = DhaA capture using immobilized biotin chloroalkane substrates (ELISA-type); type: binding
# Procedure: DhaA capture using immobilized chloroalkane substrates. […] Reactions between immobilized substrate and mutant DhaAs were performed using purified GST-DhaA-Flag fusions. Various concentrations of protein (100 μL; diluted in PBSTB) were incubated with immobilized substrate for various times at 25° C., and the reactions were stopped by emptying the plates and washing 4× with PBST. To detect bound DhaA, 100 μL anti-GST-HRP (Amersham) was added to each well at a 1:10,000 dilution (in PBSTB) and the plates incubated for 1 hour at 25° C.
# [4] = In vitro covalent alkyl-enzyme formation in crude lysates; conditions: 25 μM substrate, 2 hours at room temperature
# [5] = Covalent alkyl-enzyme formation in whole cells; conditions: 15 μM substrate, 4° C., approximately 18 hours
# [6] = In vivo labeling of DhaA mutants expressed in CHO-K1 cells (cell-to-gel analysis); type: cell-based; conditions: substrate concentration 5 μM
# Procedure: Cell-to-gel analysis. […] Proteins (2-10 μl/lane) were resolved on SDS-PAGE (4-20% gradient gels).
# [7] = Thermostability analysis (residual activity by FP assay); type: physicochemical; conditions: 60 minute incubations
# Procedure: Thermostability analysis. The thermostability profiles of the DhaA mutants were determined by measuring the residual activity of the purified proteins following 15, 30 or 60 minute incubations at 4, 22, 30, 37, 42, 50 or 60° C. The FP assay was performed at room temperature (about 25° C.). […] For each clone, the labeling rate (slope of the linear range) was calculated for each condition. The rate observed following a 15 minute incubation at 4° C. was arbitrarily assigned as 100% activity. The residual activity (%) was calculated for each condition. To determine stability, for each incubation time, the % of residual activity was plotted against the incubation temperatures. To calculate half-life, for each incubation temperature, the % of residual activity was plotted against the incubation time. The time where 50% activity was lost was extrapolated from the graph.
# [8] = Hydrolysis of CCF2 (FRET-based substrate) by BlaZ; type: biochemical, Staphylococcus aureus PC1
# From the text: In CCF2, the cephalosporin core links a 7-hydroxycoumarin to a fluorescein. In the intact molecule, excitation of the coumarin (Eex-409 nm) results in FRET to the fluorescein, which emits green light (Eem-520 nm). Cleavage of CCF2 by β-lactamase results in spatial separation of the two dyes, disrupting FRET such that excitation of coumarin now gives rise to blue fluorescence (Eex-447 nm). CCF2 was purchased from Aurora Biosciences Corporation (San Diego, Calif.). Reduction of the FRET signal and an increase in blue fluorescence were measured on Fluorescence Multi-well Plate Reader CytoFluorI (PerSeptive Biosystems, Framingham, Mass., USA).
# [9] = Hydrolysis of FAP by BlaZ (loss of absorbance at 344 nm); type: biochemical, Staphylococcus aureus PC1; conditions: 25° C., pH 6.8, up to 60 minutes
# Procedure: The chromogenic substrate 6-β-[(Furylacryloyl)amido]penicillanic acid triethylamine salt (FAP) was purchased from Calbiochem (La Jolla, Calif.). […] All assays were performed at 25° C. in 0.1 M potassium phosphate buffer at pH 6.8.
molecule,measurement,setting,value
B1,(NH4)2SO4 concentration at which the protein was precipitated,[1],10%
B2,activity compared to parental clones,[2],significantly improved
same,reaction with immobilized biotin-PEG4-14-Cl,[3],react most efficiently
B3,formation of alkyl-enzyme covalent intermediate in crude lysates,[4],No such product could be detected
B4,activity compared to parental clones,[2],significantly improved
B5,(NH4)2SO4 concentration at which the protein was precipitated,[1],10%
B6,formation of alkyl-enzyme covalent intermediate in crude lysates,[4],very efficient at producing this intermediate
same,formation of covalent alkyl-enzyme intermediate in whole cells,[5],capable of generating a covalent alkyl-enzyme intermediate
B7,in vivo labeling performance compared to parent DhaA.H272F,[6],superior performance characteristics
same,reaction with all biotin substrates tested,"[3]; biotin-14-Cl, biotin-X-14-Cl, biotin-PEG4-14-Cl",reacted poorly
same,retained significant labeling activity following incubation as high as,[7],≤ 50 °C
B8,activity compared to parental clones,[2],significantly improved
same,reaction with immobilized biotin-PEG4-14-Cl,[3],react most efficiently
B9,(NH4)2SO4 concentration at which the protein was precipitated,[1],10%
B10,hydrolysis of CCF2,[8],reduced the ability
same,hydrolysis of FAP,[9],could not be detected
